The values that follow come from PMC11480844 (2024).

To fix the notation:
B1: H2-Kb / Ed31 (parent complex)
chain 1: GQQVQQSPASLVLQEGENAELQCNFSTSLNSMQWFYQRPGGSLVSLFYNPSGTKHSGRLTSTTVIKERRSSLHISSSQTTDSGTYLCALEGNYAQGLTFGLGTRVSVFP
chain 2: ETAVFQTPNYHVTQVGNEVSFNCKQTLGHDTMYWYKQDSKKLLKIMFSYNNKQLIVNETVPRRFSPQSSDKAHLNLRIKSVEPEDSAVYLCASRSAGEQYFGPGTRLTVL
chain 3: not shown
chain 4: IQKTPQIQVYSRHPPENGKPNILNCYVTQFHPPHIEIQMLKNGKKIPKVEMSDMSFSKDWSFYILAHTEFTPTETDTYACRVKHDSMAEPKTVYWDRDM
chain 5: SIINFEKL
B2: H2-Kb / Ed16-30 (parent complex)
chain 1: GEQVEQRPPHLSVREGDSAVIICTYTDPNSYYFFWYKQEPGAGLQLLMKVFSSTEINEGQGFTVLLNKKDKQLSLNLTAAHPGDSAVYFCAVSEPSSGQKLVFGQGTILKVYL
chain 2: EAAVTQSPRNKVAVTGGKVTLSCNQTNNHNNMYWYRQDTGHGLRLIHYSYGAGSTEKGDIPDGYKASRPSQENFSLILELATPSQTSVYFCAGRDTGQLYFGEGSKLTVL
chain 3: not shown
chain 4: B1 chain 4
chain 5: SIINFEKL
Also: test concentration or dose not given here.

The first assay covers variants of B1. Description: % of reporter cells activated (NFAT-GFP), raw.
In the case of chain 5 E6L, the ratio to parent stood at 0.0037. Consider chain 5 E6C, for which the ratio to parent is 0.00242. Still for that read-out and setting: then chain 5 E6Q, with 0.111; and chain 5 E6I, with 0.000832. Same read-out and setting: the value for chain 5 E6K was 0.777. In the case of chain 5 K7I, the ratio to parent was 0.176. Take chain 5 K7G: the ratio to parent worked out at 0.186. On the same count and under the same terms, then chain 5 K7H, with 0.323.

Turning to chain 5 K7C, the ratio to parent came out at 0.747. Still for that read-out and setting: the value for chain 5 K7Q was 0.146; that for chain 5 K7A was 0.41.

Take chain 5 S1I: the ratio to parent stood at 0.676. chain 5 S1H: the ratio to parent was 1.04. Still for that read-out and setting: the value for chain 5 S1V was 0.551. Still for that read-out and setting: then chain 5 S1G, with 1.04; and chain 5 S1E, with 0.561. Still for that read-out and setting: then chain 5 S1T, with 0.99; and chain 5 S1Y, with 0.934; and chain 5 S1D, with 0.504. As for chain 5 L8G, the ratio to parent was found to be 0.711. On the same count and under the same terms, the value for chain 5 L8M was 0.945. For the variant chain 5 L8K, the ratio to parent worked out at 0.854. Take chain 5 L8D: the ratio to parent was determined as 0.549. On the same count and under the same terms, the value for chain 5 F5T was 0.956.

On to chain 5 F5N, for which the ratio to parent worked out at 0.525.

chain 5 F5P: the ratio to parent came to 0.261. On the same count and under the same terms, then chain 5 F5C, with 0.68; and chain 5 F5S, with 0.753; and chain 5 F5K, with 0.509. chain 5 F5E: the ratio to parent was found to be 0.407. On the same count and under the same terms, then chain 5 I2P, with 0.972; and chain 5 I2A, with 1.18; and chain 5 I2G, with 1.11. Same read-out and setting: the value for chain 5 I2D was 0.962; that for chain 5 I2K was 0.818; that for chain 5 I2S was 1.12.

Regarding chain 5 I2L, the ratio to parent came out at 1.12. Still for that read-out and setting: the value for chain 5 I2H was 0.832; that for chain 5 I2Y was 0.658; that for chain 5 I2N was 0.832. The same measure, in the same setting: the value for chain 5 N4H was 0.0784; that for chain 5 N4Y was 0.242; that for chain 5 N4W was 0.42. Same read-out and setting: then chain 5 N4M, with 0.207. On to chain 5 N4D, for which the ratio to parent amounted to 0.00288. On the same count and under the same terms, the value for chain 5 I3N was 0.225; that for chain 5 I3F was 0.0484; that for chain 5 I3Y was 0.0382. With chain 5 I3S, the ratio to parent came to 0.38. For the variant chain 5 I3C, the ratio to parent was found to be 0.555. As to chain 5 I3K, the ratio to parent was determined as 0.735.

The variants in another assay derive from B2. Nature of the assay: % of reporter cells activated (NFAT-GFP), raw.
Turning to chain 5 L8D, the ratio to parent worked out at 0.715.

Consider chain 5 L8R, for which the ratio to parent worked out at 1.04. Still for that read-out and setting: then chain 5 L8E, with 0.823; and chain 5 L8W, with 0.929.

With chain 5 L8T, the ratio to parent is 1.09. Still for that read-out and setting: the value for chain 5 L8I was 1.19; that for chain 5 L8V was 1. chain 5 L8P: the ratio to parent was 0.836. Still for that read-out and setting: the value for chain 5 L8Y was 1.13. Same read-out and setting: the value for chain 5 L8F was 1.12; that for chain 5 L8C was 0.731. As to chain 5 K7S, the ratio to parent turned out to be 0.842. Take chain 5 K7F: the ratio to parent stood at 0.106. For the variant chain 5 K7A, the ratio to parent was 0.499.

As for chain 5 K7Q, the ratio to parent was 0.297. The same measure, in the same setting: then chain 5 K7H, with 0.478. With chain 5 K7L, the ratio to parent turned out to be 0.401. On the same count and under the same terms, then chain 5 K7Y, with 0.265; and chain 5 K7C, with 0.563. Turning to chain 5 K7M, the ratio to parent is 0.57. For chain 5 K7N, the ratio to parent came out at 0.305. For the variant chain 5 K7P, the ratio to parent was 0.796.

For the variant chain 5 K7R, the ratio to parent came out at 1.17. As to chain 5 I3C, the ratio to parent came out at 0.642. On the same count and under the same terms, then chain 5 I3T, with 0.613; and chain 5 I3Y, with 0.607; and chain 5 I3Q, with 0.322. On the same count and under the same terms, then chain 5 I3G, with 0.137; and chain 5 I3S, with 0.393.

With chain 5 I3D, the ratio to parent is 0.562. Consider chain 5 I3A, for which the ratio to parent amounted to 0.413. Still for that read-out and setting: the value for chain 5 I3L was 1.03; that for chain 5 I3E was 0.45. Still for that read-out and setting: the value for chain 5 I3R was 0.104; that for chain 5 I3F was 0.69; that for chain 5 I3W was 0.537. The same measure, in the same setting: the value for chain 5 F5Q was 1.25; that for chain 5 F5N was 0.969. For chain 5 F5P, the ratio to parent stood at 0.769.

Regarding chain 5 F5D, the ratio to parent amounted to 0.85.

Turning to chain 5 F5A, the ratio to parent stood at 1.21. Same read-out and setting: then chain 5 F5R, with 1.19; and chain 5 F5I, with 1.11; and chain 5 F5H, with 1.21.

With chain 5 F5M, the ratio to parent is 1.28. Consider chain 5 F5G, for which the ratio to parent was determined as 0.976. With chain 5 F5T, the ratio to parent amounted to 1.23. On to chain 5 F5S, for which the ratio to parent was determined as 1.19.

For chain 5 F5K, the ratio to parent worked out at 1.04. Consider chain 5 F5V, for which the ratio to parent came out at 1.25. Same read-out and setting: then chain 5 F5Y, with 1.14; and chain 5 F5W, with 1.03; and chain 5 N4V, with 0.0105.

As for chain 5 N4E, the ratio to parent was 0.00872. For the variant chain 5 N4L, the ratio to parent came out at 0.507. Turning to chain 5 N4G, the ratio to parent came to 0.0285. Turning to chain 5 N4W, the ratio to parent was 0.0129. On the same count and under the same terms, then chain 5 N4F, with 0.00803; and chain 5 N4Y, with 0.0322. For the variant chain 5 N4D, the ratio to parent came to 0.9.

In the case of chain 5 N4P, the ratio to parent is 0.121.

In the case of chain 5 N4I, the ratio to parent is 0.0453. Turning to chain 5 N4Q, the ratio to parent came to 0.0901.

As for chain 5 I2Q, the ratio to parent came out at 0.726. Regarding chain 5 I2D, the ratio to parent is 1.31.

Turning to chain 5 I2M, the ratio to parent is 1.31. Same read-out and setting: then chain 5 I2G, with 1.25; and chain 5 I2T, with 1.18; and chain 5 I2V, with 1.33. Still for that read-out and setting: the value for chain 5 I2R was 0.968; that for chain 5 I2C was 1.12. Turning to chain 5 I2W, the ratio to parent turned out to be 0.866. On the same count and under the same terms, the value for chain 5 I2F was 1.08; that for chain 5 I2L was 1.33. Regarding chain 5 I2H, the ratio to parent came to 0.72.

On to chain 5 E6H, for which the ratio to parent was 0.488. Same read-out and setting: then chain 5 E6G, with 0.543; and chain 5 E6F, with 0.35. The same measure, in the same setting: the value for chain 5 E6D was 1.28.

Turning to chain 5 E6Y, the ratio to parent worked out at 0.308. Turning to chain 5 E6K, the ratio to parent was determined as 0.503. Same read-out and setting: then chain 5 E6V, with 0.0227; and chain 5 E6W, with 0.422; and chain 5 E6Q, with 0.745. On the same count and under the same terms, then chain 5 E6R, with 0.363; and chain 5 E6T, with 0.545; and chain 5 E6N, with 0.588. On to chain 5 E6P, for which the ratio to parent worked out at 0.508.

For chain 5 E6C, the ratio to parent turned out to be 0.197.

For the variant chain 5 S1V, the ratio to parent was found to be 0.362. Still for that read-out and setting: the value for chain 5 S1H was 0.259; that for chain 5 S1G was 0.485; that for chain 5 S1K was 0.144. With chain 5 S1R, the ratio to parent was 0.184. The same measure, in the same setting: the value for chain 5 S1N was 0.522; that for chain 5 S1T was 0.386. As to chain 5 S1D, the ratio to parent was 0.337. On to chain 5 S1W, for which the ratio to parent is 0.128. In the case of chain 5 S1I, the ratio to parent was 0.323.
